Experimental findings from patent US20240376224A1 (University of California, published 2024) are described below.

Assay [1] has as its target T1, mouse c-CDCP1 (recombinant cleaved mouse CDCP1) (mouse, UniProt Q5U462 30-368; Q5U462 369-666, limits assumed).
T1 construct: Mouse antigens made were c-CDCP1-Fc (Cut 1) and (Cut 2); also called mouse cleaved CDCP1; cleaved mCDCP1
T1 sequence 1: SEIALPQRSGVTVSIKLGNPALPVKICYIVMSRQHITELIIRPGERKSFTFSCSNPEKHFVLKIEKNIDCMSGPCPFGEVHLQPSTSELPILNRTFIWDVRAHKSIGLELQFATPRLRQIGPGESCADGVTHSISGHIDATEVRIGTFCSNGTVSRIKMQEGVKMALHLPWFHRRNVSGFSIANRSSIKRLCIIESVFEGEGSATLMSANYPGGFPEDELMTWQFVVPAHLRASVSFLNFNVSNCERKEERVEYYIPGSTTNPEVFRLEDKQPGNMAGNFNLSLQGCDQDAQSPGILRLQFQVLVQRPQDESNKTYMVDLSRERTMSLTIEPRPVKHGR
T1 sequence 2: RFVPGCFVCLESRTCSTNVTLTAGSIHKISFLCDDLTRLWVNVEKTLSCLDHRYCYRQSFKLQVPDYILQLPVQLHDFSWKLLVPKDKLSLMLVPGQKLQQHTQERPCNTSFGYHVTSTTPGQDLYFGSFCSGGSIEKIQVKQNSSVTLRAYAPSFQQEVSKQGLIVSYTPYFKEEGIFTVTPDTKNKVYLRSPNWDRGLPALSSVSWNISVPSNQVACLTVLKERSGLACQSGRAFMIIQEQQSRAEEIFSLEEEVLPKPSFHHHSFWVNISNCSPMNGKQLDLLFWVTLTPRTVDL
Kind of assay: BLI (Octet), table of binding affinities to mCDCP1. Background: In BLI a coated tip is dipped into the sample, and binding shifts an interference pattern.

For assay [2], the target named is T2, mouse c-CDCP1 on Fc1245 cells (mouse) (UniProt Q5U462).
T2 sequence 1: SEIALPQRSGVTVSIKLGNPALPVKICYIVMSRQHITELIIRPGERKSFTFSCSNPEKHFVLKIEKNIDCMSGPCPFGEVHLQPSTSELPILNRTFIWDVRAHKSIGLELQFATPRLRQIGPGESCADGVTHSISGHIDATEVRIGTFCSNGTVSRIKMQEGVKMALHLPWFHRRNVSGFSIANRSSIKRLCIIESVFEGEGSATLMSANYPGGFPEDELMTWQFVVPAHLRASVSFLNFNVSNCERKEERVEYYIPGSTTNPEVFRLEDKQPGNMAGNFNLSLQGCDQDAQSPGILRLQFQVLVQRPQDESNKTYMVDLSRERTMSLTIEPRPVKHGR
T2 sequence 2: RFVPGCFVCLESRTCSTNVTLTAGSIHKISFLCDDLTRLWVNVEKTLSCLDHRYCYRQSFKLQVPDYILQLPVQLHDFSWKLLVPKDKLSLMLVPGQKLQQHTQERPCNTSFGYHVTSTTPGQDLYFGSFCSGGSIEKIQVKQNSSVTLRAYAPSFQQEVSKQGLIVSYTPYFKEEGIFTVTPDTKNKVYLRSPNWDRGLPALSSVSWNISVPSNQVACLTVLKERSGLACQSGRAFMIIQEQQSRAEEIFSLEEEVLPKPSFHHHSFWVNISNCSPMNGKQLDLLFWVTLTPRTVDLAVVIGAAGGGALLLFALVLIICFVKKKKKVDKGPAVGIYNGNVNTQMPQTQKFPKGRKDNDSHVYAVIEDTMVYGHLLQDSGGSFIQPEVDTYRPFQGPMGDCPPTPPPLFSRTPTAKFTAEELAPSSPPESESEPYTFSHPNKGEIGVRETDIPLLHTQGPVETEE
Kind of assay: flow cytometry on Fc1245 c-CDCP1 cells (FIG. 9B); FIG. 9B. For orientation: Flow cytometry measures light scatter and fluorescence of single cells or particles in a stream.

Assay [3] concerns the target T3, c-CDCP1 Cut 2 N-terminal fragment (NTF) (human, UniProt Q9H5V8 30-368).
T3 construct: also called NTF (Cut 2)
T3 sequence: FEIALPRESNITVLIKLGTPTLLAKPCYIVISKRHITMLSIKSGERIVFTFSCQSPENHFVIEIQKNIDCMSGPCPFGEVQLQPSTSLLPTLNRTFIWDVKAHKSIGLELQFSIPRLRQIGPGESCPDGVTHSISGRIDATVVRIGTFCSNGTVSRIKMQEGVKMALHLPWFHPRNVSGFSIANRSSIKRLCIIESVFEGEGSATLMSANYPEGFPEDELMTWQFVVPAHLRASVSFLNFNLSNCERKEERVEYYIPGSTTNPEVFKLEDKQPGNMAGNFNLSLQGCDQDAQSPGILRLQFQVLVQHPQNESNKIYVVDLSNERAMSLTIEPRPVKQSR
The assay can be described thus: co-transfection of NTF and CTF plasmids (Cut 2), Ni-NTA co-purification. An excerpt:
(§1) In the present example, CDCP1 antigen with endogenous cut sites was generated. Generation of the CDCP1 antigen proceeded by co-transfection of the two fragments on separate plasmids. One set of plasmids encoding the NTF of CDCP1, ending after the PI residue of the 3 different cut sites, was designed; and a second set of plasmids encoding the C-terminal ectodomain of CDCP1 starting at the P1′ residue of the 3 different cut sites (c-CDCP1 Cut 1, Cut 2, Cut 3), was designed (FIG. 3A). Uncleaved CDCP1 ectodomain was generated with a single plasmid encoding the entire ectodomain (fl-CDCP1). Following co-transfection of pairs of NTF and CTF plasmids, an intact cleaved CDCP1 complex was purified by Ni-NTA affinity chromatography for all of the NTF+CTF cut variants (FIG. 3B). In parallel, fl-CDCP1 and c-CDCP1 ectodomains fused to an Fc domain were generated for use in phage selection, using the same co-transfection strategy (FIG. 3H-FIG. 3L). Three pairs of NTF and CTF-Fc plasmids were made that ends or starts at the 3 different cut sites of cleaved CDCP1. An SDS-PAGE gel of fl-CDCP1-Fc and c-CDCP1-Fc (Cut 1, Cut 2, Cut 3) was run (FIG. 3I).

In another assay the target is T4, c-CDCP1-Fc (Cut 2) (human, UniProt Q9H5V8 30-368; Q9H5V8 369-667).
T4 construct: Co-transfection of NTF and CTF-Fc plasmids; not shown: Fc domain
T4 sequence 1: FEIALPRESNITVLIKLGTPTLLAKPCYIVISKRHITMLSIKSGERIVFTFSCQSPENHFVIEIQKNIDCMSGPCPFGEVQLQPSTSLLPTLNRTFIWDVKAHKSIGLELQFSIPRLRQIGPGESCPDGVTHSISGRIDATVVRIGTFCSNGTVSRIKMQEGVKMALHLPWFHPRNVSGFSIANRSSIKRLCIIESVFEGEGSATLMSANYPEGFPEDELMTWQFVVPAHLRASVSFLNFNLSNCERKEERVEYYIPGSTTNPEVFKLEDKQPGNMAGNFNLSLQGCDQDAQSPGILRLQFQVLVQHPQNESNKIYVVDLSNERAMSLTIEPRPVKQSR
T4 sequence 2: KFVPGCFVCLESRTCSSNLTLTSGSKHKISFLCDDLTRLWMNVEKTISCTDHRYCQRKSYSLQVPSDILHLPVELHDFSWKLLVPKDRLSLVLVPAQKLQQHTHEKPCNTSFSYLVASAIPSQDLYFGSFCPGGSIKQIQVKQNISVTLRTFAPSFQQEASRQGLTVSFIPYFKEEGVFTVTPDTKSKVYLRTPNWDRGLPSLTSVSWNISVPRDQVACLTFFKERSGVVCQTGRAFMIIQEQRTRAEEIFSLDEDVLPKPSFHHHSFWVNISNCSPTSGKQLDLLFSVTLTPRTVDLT
The assay can be described thus: BLI (Octet RED384) on c-CDCP1-Fc (Cut2); antibody concentration not given. The procedure: BLI experiments were performed using an Octet RED384 instrument (ForteBio). Biotinylated proteins were immobilized on a streptavidin (SA) biosensor and His-tagged proteins were immobilized on a Ni-NTA biosensor. Different concentrations of analyte in PBS pH 7.4+0.05% Tween-20+0.2% BSA (PBSTB) were used as analyte. Affinities (KDS) were calculated from a global fit (1:1) of the data using the Octet RED384 software.
Furthermore, variants of CL03 were evaluated for binding to c-CDCP1-Fc (Cut2) by BLI assays using an Octet RED384 instrument (ForteBio) (FIG. 16A) using a procedure as generally described in Example 1. The variants also were evaluated by SEC-based analysis (FIG. 16B) as generally described in Example 1. The variants evaluated by BLI assays and SEC-based analysis included the variants referred to as IgG87, IgG89, IgG94, IgG97, IgG101 (CL03 IgG H1-NtoD H3-MtoA), and IgG102.

In assay [4] the target is T5, c-CDCP1 Cut 3 N-terminal fragment (NTF) (human, UniProt Q9H5V8 30-369).
T5 construct: also called NTF (Cut 3)
T5 sequence: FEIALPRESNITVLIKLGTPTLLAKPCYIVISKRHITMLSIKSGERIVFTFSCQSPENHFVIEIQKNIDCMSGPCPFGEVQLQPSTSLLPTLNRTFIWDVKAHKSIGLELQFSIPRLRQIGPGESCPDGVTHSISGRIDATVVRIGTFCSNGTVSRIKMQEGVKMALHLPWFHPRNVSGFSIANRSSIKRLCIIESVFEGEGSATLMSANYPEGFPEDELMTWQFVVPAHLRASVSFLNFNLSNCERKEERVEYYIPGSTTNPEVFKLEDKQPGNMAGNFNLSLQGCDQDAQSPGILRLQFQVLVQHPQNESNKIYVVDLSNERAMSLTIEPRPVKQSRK
Kind of assay: co-transfection of NTF and CTF plasmids (Cut 3), Ni-NTA co-purification.
Excerpt: as §1

Assay [5] deals with T6, c-CDCP1 Cut 1 N-terminal fragment (NTF) (human, UniProt Q9H5V8 30-365).
T6 construct: also called NTF (Cut 1)
T6 sequence: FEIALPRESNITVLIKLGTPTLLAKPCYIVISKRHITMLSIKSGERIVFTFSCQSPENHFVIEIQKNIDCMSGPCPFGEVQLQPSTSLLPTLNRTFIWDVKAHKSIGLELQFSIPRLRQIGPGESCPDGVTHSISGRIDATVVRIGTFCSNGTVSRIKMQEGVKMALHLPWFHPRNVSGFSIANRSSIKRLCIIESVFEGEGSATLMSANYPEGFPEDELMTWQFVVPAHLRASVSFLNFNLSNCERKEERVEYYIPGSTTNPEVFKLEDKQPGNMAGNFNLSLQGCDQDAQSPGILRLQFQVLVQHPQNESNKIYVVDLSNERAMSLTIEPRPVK
Kind of assay: co-transfection of NTF and CTF plasmids (Cut 1), Ni-NTA co-purification.
Excerpt: as §1

In general, Kd refers to the concentration at which binding is half-saturated. Usually EC50 stands for the concentration that produces a half-maximal response. A higher EC50 goes with weaker potency.

B1: IgG 58 (antibody, V domains shown)
VH: EVQLVESGGGLVQPGGSLRLSCAASGFNVYSYSIHWVRQAPGKGLEWVASISSSSGSTSYADSVKGRFTISADTSKNTAYLQMNSLRAEDTAVYYCARYYWDPWQYASYSYLAFDYWGQGTLVTVSS
VL: MTQSPSSLSASVGDRVTITCRASQSVSSAVAWYQQKPGKAPKLLIYSASSLYSGVPSRFSGSRSGTDFTLTISSLQPEDFATYYCQQTYSGPITFGQGTKVEIKR
notes: Mouse cleaved-CDCP1-specific antibody; also called Ab58; IgG 0058
Turning to B1, the dissociation constant (Kd) in assay [1] was determined as 0.8 nM. In assay [2], the EC50 was found to be 6.9 nM.

B2: c-CDCP1 Cut 2 C-terminal fragment (CTF) of the ectodomain (receptor)
chain: KFVPGCFVCLESRTCSSNLTLTSGSKHKISFLCDDLTRLWMNVEKTISCTDHRYCQRKSYSLQVPSDILHLPVELHDFSWKLLVPKDRLSLVLVPAQKLQQHTHEKPCNTSFSYLVASAIPSQDLYFGSFCPGGSIKQIQVKQNISVTLRTFAPSFQQEASRQGLTVSFIPYFKEEGVFTVTPDTKSKVYLRTPNWDRGLPSLTSVSWNISVPRDQVACLTFFKERSGVVCQTGRAFMIIQEQRTRAEEIFSLDEDVLPKPSFHHHSFWVNISNCSPTSGKQLDLLFSVTLTPRTVDLT
notes: Tag for Ni-NTA purification not described; also called CTF (Cut 2)
B2: the binding result in assay [3] was “binds”.

B3: IgG102 (antibody, V domains shown)
VH: EVQLVESGGGLVQPGGSLRLSCAASGFDFSSYSIHWVRQAPGKGLEWVASSYPYSGSTYYADSVKGRFTISADTSKNTAYLQMNSLRAEDTAVYYCARQSHSYYSHTWWVSYGMDYWGQGTLVTVSS
VL: DIQMTQSPSSLSASVGDRVTITCRASQSVSSAVAWYQQKPGKAPKLLIYSASSLYSGVPSRFSGSRSGTDFTLTISSLQPEDFATYYCQQSGQRPITFGQGTKVEIK
Consider B3, for which the binding result with c-CDCP1-Fc (Cut 2) is given as “binds”.

B4: c-CDCP1 Cut 3 C-terminal fragment (CTF) of the ectodomain (receptor)
chain: FVPGCFVCLESRTCSSNLTLTSGSKHKISFLCDDLTRLWMNVEKTISCTDHRYCQRKSYSLQVPSDILHLPVELHDFSWKLLVPKDRLSLVLVPAQKLQQHTHEKPCNTSFSYLVASAIPSQDLYFGSFCPGGSIKQIQVKQNISVTLRTFAPSFQQEASRQGLTVSFIPYFKEEGVFTVTPDTKSKVYLRTPNWDRGLPSLTSVSWNISVPRDQVACLTFFKERSGVVCQTGRAFMIIQEQRTRAEEIFSLDEDVLPKPSFHHHSFWVNISNCSPTSGKQLDLLFSVTLTPRTVDLT
notes: Tag for Ni-NTA purification not described; also called CTF (Cut 3)
Regarding B4, the binding result in assay [4] is given as “binds”.

B5: c-CDCP1 Cut 1 C-terminal fragment (CTF) of the ectodomain (receptor)
chain: QSRKFVPGCFVCLESRTCSSNLTLTSGSKHKISFLCDDLTRLWMNVEKTISCTDHRYCQRKSYSLQVPSDILHLPVELHDFSWKLLVPKDRLSLVLVPAQKLQQHTHEKPCNTSFSYLVASAIPSQDLYFGSFCPGGSIKQIQVKQNISVTLRTFAPSFQQEASRQGLTVSFIPYFKEEGVFTVTPDTKSKVYLRTPNWDRGLPSLTSVSWNISVPRDQVACLTFFKERSGVVCQTGRAFMIIQEQRTRAEEIFSLDEDVLPKPSFHHHSFWVNISNCSPTSGKQLDLLFSVTLTPRTVDLT
notes: Tag for Ni-NTA purification not described; also called CTF (Cut 1)
Take B5: the binding result in assay [5] was “binds”.
